# Source: patent US20230071765A1, “COMPOSITIONS HAVING THIOREDOXIN ACTIVITY AND RELATED METHODS” (ORPRO THERAPEUTICS, INC., priority 2020, published 2023)
# B1: ORP100S: thioredoxin with monothiol active site, Cys35 and non-active Cys 62, 69 and 73 substituted with serine (SEQ ID NO:29) (protein)
# chain: MVKQIESKTAFQEALDAAGDKLVVVDFSATWCGPSKMIKPFFHSLSEKYSNVIFLEVDVDDSQDVASESEVKSMPTFQFFKKGQKVGEFSGANKEKLEATINELV
# modifications: synthetic peptide motif
# Columns and labels:
# [1] = test system: CF patient sputum on wild type rat trachea; experiment: CF sputum transport ex vivo on excised rat trachea (μOCT); parameters: species or system human sputum
# Procedure: To determine the effect of ORP100S on CF sputum transportability, sputum specimens spontaneously expectorated from 4 CF patients hospitalized for pulmonary exacerbation were collected and stored at 4° C. before being divided into 200 μL aliquots and treated with ORP100S (3 mM), PBS, DTT (1.6 mM), or DNase (10 or 25 μg/ml) on the day of or day following collection. Upon treatment, sputum aliquots were placed in a 37° C. water bath for 2 hrs and then applied (3 μl per sample) for μOCT imaging to the distal end of trachea excised from adult non-CF rats. Trachea were washed 2× with 500 μl of PBS before sputum addition. Sample conditions were applied in triplicate in random order at distinct anatomic locations—2 washes using 500 μl of PBS were performed between each sample addition—and at least 3 images were collected from each region of interest. Confirmation of trachea viability was obtained by imaging with PBS upon completion of the experiment.
# One-micron resolution spectral domain μOCT was used to obtain measurements of mucociliary transport (MCT) rate and ciliary beat frequency (CBF) in HBE monolayers and of MCT rate of sputum ex vivo. This first-in-kind, high-speed (40 frames per second, 512 lines per frame) microscopic reflectance imaging modality enables simultaneous anatomic imaging in cell cultures and intact tissues that readily distinguishes the properties of CF compared to normal epithelia (Liu L, Chu K K, Houser G H, Diephuis B J, Li Y, Wilsterman E J, Shastry S, Dierksen G, Birket S E, Mazur M, et al., 2013, Method for quantitative study of airway functional microanatomy using micro-optical coherence tomography, PLoS One 8(1):e54473; Tuggle K L, Birket S E, Cui X, Hong J, Warren J, Reid L, Chambers A, Ji D, Gamber K, Chu K K, et al., 2014, Characterization of defects in ion transport and tissue development in Cystic Fibrosis Transmembrane Conductance Regulator (CFTR)-knockout rats. PLoS One 9(3):e91253). In addition to MCT rate and CBF, μOCT also has the capability to assess physical characteristics of the airway surface liquid. Images were captured, and MCT rate and CBF calculated, as described in the preceding references.
# The effect of ORP100S on mucus clearance using intact rat trachea, which include the complexities of the airway surface such as gland expression of a fully differentiated mucosal surface, was further evaluated. […] MCT was measured by projecting a cross-sectional line through the mucus through time, with the slope of the particle trajectories indicating velocity. […]
# [2] = test system: Sprague-Dawley rats; experiment: nebulized aerosol inhalation in rats, inflammatory potential and toxicity; assay type: in vivo, rat
# Procedure: This example evaluated and compared the in vivo inflammatory potential among three forms of C35S monothiol Trx (oxidized ORP-100, reduced ORP-100, and reduced ORP100S) formulated in the sucrose/EDTA formulation composition described in PCT WO 2006/090127 and delivered to normal rats as nebulized aerosols at doses of […] and 40 mg/kg.
# All three forms of ORP-100 were lyophilized following reduction with DTT and formulated in sucrose buffer (9% sucrose 1.17 mM EDTA pH 5.2). All test articles were evaluated at low (10 mg/kg) and high (40 mg/kg) target delivered doses. The test articles were administered to Charles River Sprague-Dawley rats via inhalation as an aerosol. The aerosol of each of the test articles was produced by a commercially available vibrating mesh nebulizer whose output was attached to a nose-only exposure system.
# Target doses were achieved via modulation of the aerosol exposure time while maintaining the aerosol concentration constant. Animals in Low Dose groups received a single dose of test article during a 20 minute exposure to achieve a target delivered dose of 10 mg/kg and deposited dose of 1 mg/kg. Animals in High Dose groups received a single dose of test article during a 75 minute exposure to achieve a target delivered dose of 40 mg/kg and target deposited dose of 4 mg/kg.
# Animals in each study group were evaluated for potential toxicity by measuring various parameters including: clinical signs, body weight, clinical pathology (BALF cell counts, LDH and albumin measurements), lung tissue cytokines, lung weights, gross pathology, and microscopic pathology of respiratory target tissues. Additionally, three animals in each Low Dose group had lung tissues collected for immunohistochemistry (Alizèe Pathology, Thurmont, M D). Three (3) animals in each Low Dose group were to be euthanized at 1 hour and 4 hours post exposure for blood and tissue collections. Four (4) animals in each High Dose group were euthanized at 4 and 20 hours post exposure for blood and tissue collections.
# [3] = stability analysis, lyophilized vs solution (DTNB and SEC-HPLC); assay type: physicochemical
# Procedure: Prior work, e.g. WO 2006/090127, teaches compositions for maintenance of thioredoxin in the reduced state. Significant experimentation was required to derive compositions able to keep thioredoxin reduced during storage, and these compositions were complex and required saccharide derivatives and EDTA as excipients. […] ORP-100 and ORP100S proteins were reduced with 100 mM DTT and exchanged over a NAP-5 column into volatile 20 mM ammonium acetate buffer at pH 5.5 to remove residual reductant. Half of the material was frozen at −80° C. then lyophilized while the remainder was kept in solution at either 5° C. or 40° C. for various time points (“PH5.5”). Lyophilized protein was reconstituted back into 20 mM ammonium acetate pH 5.5 immediately prior to evaluation at each time point (“Lyophilized”). Stability was assessed by measuring both free SH groups (DTNB chromogenic assay) and the percent monomers (SEC-HPLC).
# For FIG. 3: PH5.5: ORP-100 or ORP100S protein maintained in liquid formulation of 20 mM ammonium acetate, pH 5.5 for 0, 3, 7, 14, 21, 28, 90, or 180 days. Lyophilized: ORP-100 or ORP100S protein stored in the lyophilized form at 5° C. or 40° C. for the 0, 3, 7, 14, 21, 28, 90, or 180 days and assayed following reconstitution in 20 mM ammonium acetate, pH 5.5. Percent free sulfhydryl (reduction state) at 5° C. Second panel: Percent monomer determined by SEC assay at 5° C. Third panel: Percent free sulfhydryl at 40° C. Fourth panel: Percent monomer determined by SEC assay at 40° C.
molecule,measurement,setting,value
B1,sputum density vs. PBS-treated sputum,"[1]; 3 mM, μOCT images",effective in decreasing sputum density
same,change in MCT rate normalized to the effect of PBS,"[1]; sputum treated 2 hrs, ORP100S 3 mM, DTT 1.6 mM, DNase 10 or 25 μg/ml",3.80±0.35 fold vs. PBS
same,MCT rate of treated sputum,"[1]; sputum treated 2 hrs, ORP100S 3 mM, DTT 1.6 mM, DNase 10 or 25 μg/ml, PBS 0.97±0.17",4.68±0.9 mm/min
same,"differences in BALF LDH, albumin, cell counts, differential counts and lung tissue cytokines vs. oxidized ORP-100 control groups",[2]; low and high dose aerosol,unremarkable
same,neutrophil influx (sucrose/EDTA formulation effect),"[2]; sucrose/EDTA formulation, nebulized aerosol",abrogated neutrophil influx almost completely
same,"adverse test article effects (clinical observations, BALF chemistry, cell count, differential, lung cytokines, macroscopic and microscopic findings)","[2]; target delivered doses 10 mg/kg and 40 mg/kg, aerosol, 1, 4 or 20 hours post exposure",no evidence of adverse test article effects
same,"storage stability (free SH, percent monomer)","[3]; lyophilized form, six months at 40° C.",excellent storage stability
same,monomer stability by SEC-HPLC vs. ORP-100,[3]; particularly first week of storage in liquid formulation,slightly better monomer stability
